Laboratory results reported in US20230183379A1 (published 2023).

Molecular target: transferrin receptor 1 (TfR1), human (human, UniProt P02786 1-760)
Experiment: FACS binding, Raji cells, 4 °C

Sequence of transferrin receptor 1 (TfR1), human (P02786 whole entry): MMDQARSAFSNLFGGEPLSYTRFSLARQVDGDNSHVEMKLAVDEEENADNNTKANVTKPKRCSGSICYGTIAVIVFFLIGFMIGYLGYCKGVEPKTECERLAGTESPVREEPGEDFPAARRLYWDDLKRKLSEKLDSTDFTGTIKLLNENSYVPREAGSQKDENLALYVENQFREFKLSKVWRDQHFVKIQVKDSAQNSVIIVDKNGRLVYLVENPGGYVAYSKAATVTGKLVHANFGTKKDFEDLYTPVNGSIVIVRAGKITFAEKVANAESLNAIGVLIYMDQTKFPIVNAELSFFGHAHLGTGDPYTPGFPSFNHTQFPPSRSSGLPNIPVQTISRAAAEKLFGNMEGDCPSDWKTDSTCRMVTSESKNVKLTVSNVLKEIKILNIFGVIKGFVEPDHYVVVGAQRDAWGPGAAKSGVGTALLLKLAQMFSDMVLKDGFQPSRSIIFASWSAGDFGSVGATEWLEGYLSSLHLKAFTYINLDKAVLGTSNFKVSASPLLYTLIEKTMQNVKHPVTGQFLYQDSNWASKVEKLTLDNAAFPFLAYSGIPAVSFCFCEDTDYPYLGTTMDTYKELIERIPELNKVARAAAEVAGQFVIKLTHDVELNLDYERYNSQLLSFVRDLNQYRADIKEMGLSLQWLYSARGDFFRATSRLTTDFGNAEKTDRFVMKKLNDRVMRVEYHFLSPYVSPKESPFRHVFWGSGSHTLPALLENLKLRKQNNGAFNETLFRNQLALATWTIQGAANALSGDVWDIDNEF

EC50: 1.13 nM
B1: F12-IgG1 (IgG1 anti-TfR1 F12 antibody) (antibody, V domains shown)
VH: QVQLQESGGGLVQPGGSLRLSCAASGFSFNTYTMHWVRQAPGKGLEWVADIAYDGSTKYYADSVKGRFTISRDNAKNSLYLQMNSLRAEDTAVYYCARDAVAGEGYFDLWGRGTLVTVSS
VL: QSALTQDPAVSVALGQTVRITCQGDSLRSYYASWYQQLPGTAPKLLIYRNNQRPSGVPDRFSGSKSGTSASLAISGLRSEDEADYYCAAWDDSLSAWVFGGGTKLTVLG
